According to patent US20220259593A1, “CONTROL OF MAMMALIAN GENE DOSAGE USING CRISPR” (The Regents of the University of California, priority 2019, published 2022):
Where a chain is given by its changes, count along the chain named.

System: K562 CRISPRi cells
Assay: Constant region variant library pooled growth screen, K562
Format: cell-based, human
Summary of the method: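 Relative activity expresses each targeting sequence:constant region pair's phenotype over that of the unmodified constant region. Pooled growth screen ran in K562 CRISPRi cells in duplicate spinner-flask replicates, with puromycin selection and 4–8 days' growth at >2000× coverage; library paired variants with 36 targeting sequences.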

[1] = sgRNA constant region variant, activity relative to unmodified constant region cr995, mean CRISPRi activity
[2] = sgRNA constant region variants, activity relative to the original, un-modified constant region cr995

B1: cr100 (nucleic acid)
guide: GTTTAAGAGCTAAGCTGGAAACAGCATAGCAAGTTTAAATGAGGCTAGCCCGTTATCAACTTGAAAAAGTGGCACCGAGTCGGTGCT
modifications: listed as DNA, chemistry not fully specified
[1]
  Mean relative activity: 0.005923

B2: cr266 (nucleic acid)
guide: B1 guide with A28G, T34G, G41A, T46G, C49T
modifications: listed as DNA, chemistry not fully specified
[2]
  Mean relative activity: 0.005552

B3: cr400 (nucleic acid)
guide: B1 guide with T34G, G41A, C45A, G48T, C49T
modifications: listed as DNA, chemistry not fully specified
[2]
  Mean relative activity: 0.00451

B4: cr584 (nucleic acid)
guide: B1 guide with G41A, A42T, C49T, G52T
modifications: listed as DNA, chemistry not fully specified
[1]
  Mean relative activity: 0.005912

B5: cr060 (nucleic acid)
guide: B1 guide with T3G, T4C, G41A, C49T
modifications: listed as DNA, chemistry not fully specified
[2]
  Mean relative activity: 0.005182

B6: cr109 (nucleic acid)
guide: B1 guide with G41A, C49T, T61A, T62A, A67T, A68T
modifications: listed as DNA, chemistry not fully specified
[2]
  Mean relative activity: 1.031

B7: cr845 (nucleic acid)
guide: B1 guide with T34G, G41A, G43A, C49T, C51T
modifications: listed as DNA, chemistry not fully specified
[2]
  Mean relative activity: 0.004644

B8: cr049 (nucleic acid)
guide: B1 guide with T3G, A5T, G41A, C49T
modifications: listed as DNA, chemistry not fully specified
[2]
  Mean relative activity: 0.003203

B9: cr981 (nucleic acid)
guide: B1 guide with G41A, G43C, C49T, C51G, T62G, A67C
modifications: listed as DNA, chemistry not fully specified
[2]
  Mean relative activity: 0.003266

B10: cr536 (nucleic acid)
guide: B1 guide with G33C, G41A, C45A, G48T, C49T
modifications: listed as DNA, chemistry not fully specified
[2]
  Mean relative activity: 0.003951

B11: cr833 (nucleic acid)
guide: B1 guide with A28C, G33C, G41A, C49T, G71C
modifications: listed as DNA, chemistry not fully specified
[2]
  Mean relative activity: 0.004215

B12: cr537 (nucleic acid)
guide: B1 guide with T34C, G41T, C49T
modifications: listed as DNA, chemistry not fully specified
[2]
  Mean relative activity: 0.005276

B13: cr381 (nucleic acid)
guide: B1 guide with G41T, A47C, C49T, A65C
modifications: listed as DNA, chemistry not fully specified
[2]
  Mean relative activity: 0.003196

B14: cr469 (nucleic acid)
guide: B1 guide with G41A, C49T, G52C
modifications: listed as DNA, chemistry not fully specified
[2]
  Mean relative activity: 0.003211

B15: cr309 (nucleic acid)
guide: B1 guide with T34G, G41A, C49G
modifications: listed as DNA, chemistry not fully specified
[2]
  Mean relative activity: 0.005045

B16: cr094 (nucleic acid)
guide: B1 guide with T2A, A5T, G41A, C49T
modifications: listed as DNA, chemistry not fully specified
[2]
  Mean relative activity: 0.004414

B17: cr271 (nucleic acid)
guide: B1 guide with G41A, C49T, C73T, A74C, T84G, G85A
modifications: listed as DNA, chemistry not fully specified
[2]
  Mean relative activity: 1.03

B18: cr849 (nucleic acid)
guide: B1 guide with G33C, T34G, G41A, C49T
modifications: listed as DNA, chemistry not fully specified
[2]
  Mean relative activity: 0.004706

B19: cr068 (nucleic acid)
guide: B1 guide with T4A, A5G, G41A, C49T
modifications: listed as DNA, chemistry not fully specified
[2]
  Mean relative activity: 0.002959

B20: cr482 (nucleic acid)
guide: B1 guide with G41A, A47T, C49T, G52C
modifications: listed as DNA, chemistry not fully specified
[2]
  Mean relative activity: 0.003006

B21: cr753 (nucleic acid)
guide: B1 guide with G41A, G43C, C49T, C51G, A59T, T70A, C73A, G85T
modifications: listed as DNA, chemistry not fully specified
[2]
  Mean relative activity: 0.004302

B22: cr070 (nucleic acid)
guide: B1 guide with G7C, A8G, G41A, C49T
modifications: listed as DNA, chemistry not fully specified
[2]
  Mean relative activity: 1.03

B23: cr245 (nucleic acid)
guide: B1 guide with T34G, G41A, G44A, C49T, C50T
modifications: listed as DNA, chemistry not fully specified
[2]
  Mean relative activity: 0.00372

B24: cr203 (nucleic acid)
guide: B1 guide with G33C, G41A, C49T, G52T
modifications: listed as DNA, chemistry not fully specified
[2]
  Mean relative activity: 0.004333

B25: cr660 (nucleic acid)
guide: B1 guide with G41A, G43T, C49T
modifications: listed as DNA, chemistry not fully specified
[2]
  Mean relative activity: 0.004102

B26: cr057 (nucleic acid)
guide: B1 guide with T2C, T4C, G41A, C49T
modifications: listed as DNA, chemistry not fully specified
[2]
  Mean relative activity: 0.005757

B27: cr857 (nucleic acid)
guide: B1 guide with G41T, C49T, G71C, T80C
modifications: listed as DNA, chemistry not fully specified
[2]
  Mean relative activity: 0.004274

B28: cr297 (nucleic acid)
guide: B1 guide with G41A, C49G, G71C
modifications: listed as DNA, chemistry not fully specified
[2]
  Mean relative activity: 0.004872

B29: cr472 (nucleic acid)
guide: B1 guide with T34G, G41A, C45T, G48A, C49T
modifications: listed as DNA, chemistry not fully specified
[2]
  Mean relative activity: 0.004917

B30: cr303 (nucleic acid)
guide: B1 guide with G33C, G41A, A47T, C49T, G71T
modifications: listed as DNA, chemistry not fully specified
[2]
  Mean relative activity: 0.003573
